The values that follow come from patent US20190292537, “Prokaryotic Argonaute Proteins and Uses Thereof” (Wageningen Universiteit, published 2019).

What all share (conditions): tags: His-MBP N-terminal (TEV added during purification)
In series [1] the target is T1, CbAgo (Clostridium butyricum, UniProt P0DYD1 SEQ:1-748). As to the kind of experiment: EMSA; DNA guide preloaded, 37 C; target printed as 7043 in text, 7023 in Table 2. The protocol:
(§1) CbAgo (10 pmol) was pre-incubated with the desired polynucleotide guide (RNA guide: 7024, DNA guide: 3466, 10 pmol) for 5 min at 37° C. This was followed by addition of a target polynucleotide (RNA target: […]: 7043, 10 pmol) and another incubation step of 5 min at 37° C. The reactions were then resolved on a 6% Native PAGE gel and stained with SYBR gold.
(In general: In EMSA bound probe runs differently from free probe, usually more slowly.)

Series [2] deals with T1, CbAgo. As to the kind of experiment: EMSA; RNA guide, DNA target, 37 C; target printed as 7043 in text, 7023 in Table 2. On the procedure: as §1
Series [3] has as its target T1, CbAgo. As to the kind of experiment: EMSA; DNA guide, RNA target, 37 C. The protocol:
as §1

For series [4], the target named is T1, CbAgo. As to the kind of experiment: EMSA; RNA guide, RNA target, 37 C. The protocol:
as §1

B1: DNA guide 3466 ; DNA target 7023 (ssDNA ; ssDNA)
DNA 1: TGAGGTAGTAGGTTGTATAGT
DNA 2: AAACGACGGCCAGTGCCAAGCTTACTATACAACCTACTACCTCAT
modifications: 5'-phosphate ; 5'-phosphate
In the case of B1, in the series with CbAgo [1], the binding result is reported as “binds”.

B2: RNA guide 7024 ; DNA target 7023 (ssRNA ; ssDNA)
RNA: UGAGGUAGUAGGUUGUAUAGU
DNA: B1 DNA 2
modifications: 5'-phosphate ; 5'-phosphate
For the molecule B2, in the series with CbAgo [2], the binding result is “binds”.

B3: DNA guide 3466 ; RNA target 7022 (ssDNA ; ssRNA)
DNA: TGAGGTAGTAGGTTGTATAGT
RNA: AAACGACGGCCAGUGCCAAGCUUACUAUACAACCUACUACCUCAU
modifications: 5'-phosphate ; 5'-phosphate
As to B3, the binding result in the series with CbAgo [3] is recorded as “binds”.

B4: RNA guide 7024 ; RNA target 7022 (ssRNA ; ssRNA)
RNA 1: UGAGGUAGUAGGUUGUAUAGU
RNA 2: B3 RNA
modifications: 5'-phosphate ; 5'-phosphate
In the case of B4, the binding result with CbAgo [4] is reported as “binds”.
